Assay [1] addresses T1, recombinant human ROR1-ECD protein (human, UniProt Q01973 30-406).
T1 construct: also called human ROR1 extracellular domain
Kind of assay: BLI (Octet RED96), antibody captured on anti-mouse IgG Fc sensors, ROR1-ECD in solution, 25 C, 1:1 fit. As for the experimental part:
Briefly, Anti-Mouse IgG Fc Capture (AMC) Biosensors were used to capture purified anti-ROR1 antibodies. Sensors were then dipped into solutions containing recombinant human ROR1-ECD protein to detect target protein binding to the captured antibodies. Kinetics constants were determined by processing and fitting data to a 1:1 binding model using Fortebio analysis software. Shown below in Table 2 are the results obtained for ROR1-mAb004 in comparison with two previously described anti-ROR1 monoclonal antibodies, ROR1-Tab1 is clone R12 as described in WO2014167022, and ROR1-Tab2 is clone D10 as described in WO2012097313.

Assay [2] deals with T1, recombinant human ROR1-ECD protein. Kind of assay: competition ELISA: biotinylated ROR1-ECD pre-mixed with the row's antibody; competitor coated on the plate: ROR1-Tab1. As for the experimental part: (§1) The binding epitope of ROR1 antibodies were identified with a competition ELISA. Briefly, 96 well plates were coated with 1 ug/mL purified antibodies and incubated overnight at 4° C. After washing with PBS containing 0.05% Tween 20, plates were blocked with blocking buffer (PBS containing 0.05% Tween 20 and 2% BSA) at 37° C. for 2 hours. Biotinylated human ROR1-ECD protein pre-mixed with ROR1 antibody (sample) or irrelevant mouse IgG (baseline) was added into plate wells and incubated at 37° C. for 1 hour before being washed 3 times. Streptavidin-HRP (1:5000 dilution) was then added into each well and incubated at 37° C. for 1 hour before being washed another 3 times. Tetramethylbenzidine (TMB) chromogenic solution was added for color development for 5 minutes then the reaction was stopped with 1M HCl. Absorbance at 450 nm (OD₄₅₀) was measured on a microplate reader. The OD450baseline represents the level of human ROR1-ECD binding to ROR1 antibodies at absence of competition, while the difference between OD450baseline and OD450ₛₐₘₚₗₑ reflects the competition between the ROR1 antibody coated on plate and the antibody in solution. The inhibition percentage was calculated by following equation: […]

For assay [3] the target is unchanged. Briefly: competition ELISA: biotinylated ROR1-ECD pre-mixed with the row's antibody; competitor coated on the plate: ROR1-Tab2. As to the method:
as §1
On the technique in general: In an ELISA, binding on a coated surface is turned into a signal by an enzyme label.

Assay [4] shares this target. Kind of assay: competition ELISA: biotinylated ROR1-ECD pre-mixed with the row's antibody; competitor coated on the plate: ROR1-mAb004. As for the experimental part:
as §1

Assay [5] deals with T2, human ROR1 on cells (human, UniProt Q01973 30-937).
T2 construct: whole, on cells; the cell line is named under assay; also called CHO-ROR1; CHOK1-ROR1
Briefly: flow cytometry on MDA-MB-231 cells, MFI. For orientation: Flow cytometry measures light scatter and fluorescence of single cells or particles in a stream.

Assay [6] deals with T1, recombinant human ROR1-ECD protein. Briefly: ELISA, ROR1-ECD coated at 1 ug/mL. As for the experimental part: The binding specificity and potency of anti-ROR1 antibodies were characterized by protein ELISA and flow cytometry analysis of cell surface binding. Briefly, binding properties of the anti-ROR1 antibodies were measured with ELISA as follows: recombinant ROR1-ECD protein was coated at 1 μg/mL on 96-well plates at 4° C. overnight. Plates were washed once with washing buffer (PBS containing 0.05% Tween 20) and blocked with ELISA blocking buffer (1% BSA in PBS containing 0.05% Tween 20) at room temperature for 2 hours. Anti-ROR1 antibodies were then added and incubated at 37° C. for 1 hour. Plates were washed three times with washing buffer. HRP labeled anti-mouse IgG secondary antibody (Sigma, Cat. #A0168) was added and the plates were incubated at 37° C. for 30 minutes then washed 5 times in washing buffer. 100 μl of tetramethylbenzidine (TMB) chromogenic solution was added to each well. Following color development, the reaction was stopped with 1 Normal HCl and absorbance at 450 nm was measured on a Varioskan™ LUX microplate reader (ThermoFisher Scientific). Binding signals were plotted against antibody concentration with GraphPad Prism 6.0 software and EC50s were calculated accordingly.

The target in assay [7] is T2, human ROR1 on cells. Briefly: flow cytometry on RPMI-8226 myeloma cells. As to the method: (§2) Cell binding activity of anti-ROR1 antibodies were measured with human ROR1 transfected CHO cell line (CHO-ROR1) and ROR1-expressing myeloma cell line (RPMI8226). Briefly, 5×10⁵ cells were seeded into each well of a 96-well plate. Cells were centrifuged at 400 g for 5 minutes and supernatants were discarded. For each well, 100 μl of serially diluted antibodies were then added and mixed with the cells. After 40 minutes incubation at 4° C., plates were washed several times to remove excess antibodies. Secondary fluorochrome-conjugated goat anti-mouse IgG antibody was then added and incubated with cells at room temperature for 20 minutes. After another round of centrifugation and a washing step, cells were resuspended in FACS buffer for reading on a CytoFLEX Flow Cytometer (Beckman Coulter). Median Fluorescence Intensity (MFI) readouts were plotted against antibody concentration and analyzed with GraphPad Prism 6.0 software. The results shown in FIGS. 2A-B illustrate the binding activities of anti-ROR1 monoclonal antibodies ROR1-mAb004 and ROR1-Tab1 to ROR1 expressing cells. An irrelevant mIgG1 was used as negative control.

Assay [8] has as its target T2, human ROR1 on cells. Kind of assay: flow cytometry on human ROR1 transfected CHO cells (CHOK1-ROR1). As for the experimental part:
as §2

Another assay deals with T3, human CD3 on cells (human, UniProt P07766 23-207; P04234 22-171; P09693 23-182; P20963 22-164).
T3 construct: the cell line is named under assay; also called human TCR/CD3 complex; CHO-CD3-TCR
Kind of assay: flow cytometry on CHO-CD3-TCR cells, MFI. As to the method:
Briefly, 5×10⁵ cells were seeded into each well of a 96-well plate. Cells were centrifuged at 400 g for 5 minutes and supernatants were discarded. For each well, […] of serially diluted antibodies were then added and mixed with the cells. After 40 minutes of incubation at 4° C., plates were washed several times to remove excess antibodies. Secondary fluorochrome-conjugated goat anti-human IgG antibody was then added and incubated with cells at room temperature for 20 minutes. After another round of centrifugation and a washing step, cells were resuspended in FACS buffer for reading on a CytoFLEX Flow Cytometer (Beckman Coulter). Median Fluorescence Intensity (MFI) readouts were plotted against antibody concentration and analyzed with GraphPad Prism 6.0 software.

Changes are numbered by the printed parent chain.

Experimental findings from patent US20240010753A1 (EPIMAB BIOTHERAPEUTICS HK, published 2024) are described below.

Usually Kd stands for the concentration at which binding is half-saturated. As a reminder, the koff is a measure of how fast the partners let go of each other. For orientation: kon means the second-order rate constant of association. A word on the EC50 (read off the curve): it is the concentration needed to bring the measured effect to its halfway point. High values mean a less potent agent, low ones a more potent agent. The EC50 is the concentration giving half of the maximal effect.

T1 sequence (Q01973 30-406): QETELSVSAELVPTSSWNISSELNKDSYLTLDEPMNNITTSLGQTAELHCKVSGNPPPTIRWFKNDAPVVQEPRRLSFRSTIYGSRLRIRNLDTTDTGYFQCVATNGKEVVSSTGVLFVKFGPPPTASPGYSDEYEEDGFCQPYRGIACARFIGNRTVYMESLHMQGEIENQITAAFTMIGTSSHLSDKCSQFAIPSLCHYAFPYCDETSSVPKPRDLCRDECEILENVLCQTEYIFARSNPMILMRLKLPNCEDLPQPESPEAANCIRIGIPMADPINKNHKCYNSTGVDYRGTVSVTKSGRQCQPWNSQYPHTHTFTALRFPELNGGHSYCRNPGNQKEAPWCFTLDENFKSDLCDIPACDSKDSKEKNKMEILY
T2 sequence (Q01973 30-937): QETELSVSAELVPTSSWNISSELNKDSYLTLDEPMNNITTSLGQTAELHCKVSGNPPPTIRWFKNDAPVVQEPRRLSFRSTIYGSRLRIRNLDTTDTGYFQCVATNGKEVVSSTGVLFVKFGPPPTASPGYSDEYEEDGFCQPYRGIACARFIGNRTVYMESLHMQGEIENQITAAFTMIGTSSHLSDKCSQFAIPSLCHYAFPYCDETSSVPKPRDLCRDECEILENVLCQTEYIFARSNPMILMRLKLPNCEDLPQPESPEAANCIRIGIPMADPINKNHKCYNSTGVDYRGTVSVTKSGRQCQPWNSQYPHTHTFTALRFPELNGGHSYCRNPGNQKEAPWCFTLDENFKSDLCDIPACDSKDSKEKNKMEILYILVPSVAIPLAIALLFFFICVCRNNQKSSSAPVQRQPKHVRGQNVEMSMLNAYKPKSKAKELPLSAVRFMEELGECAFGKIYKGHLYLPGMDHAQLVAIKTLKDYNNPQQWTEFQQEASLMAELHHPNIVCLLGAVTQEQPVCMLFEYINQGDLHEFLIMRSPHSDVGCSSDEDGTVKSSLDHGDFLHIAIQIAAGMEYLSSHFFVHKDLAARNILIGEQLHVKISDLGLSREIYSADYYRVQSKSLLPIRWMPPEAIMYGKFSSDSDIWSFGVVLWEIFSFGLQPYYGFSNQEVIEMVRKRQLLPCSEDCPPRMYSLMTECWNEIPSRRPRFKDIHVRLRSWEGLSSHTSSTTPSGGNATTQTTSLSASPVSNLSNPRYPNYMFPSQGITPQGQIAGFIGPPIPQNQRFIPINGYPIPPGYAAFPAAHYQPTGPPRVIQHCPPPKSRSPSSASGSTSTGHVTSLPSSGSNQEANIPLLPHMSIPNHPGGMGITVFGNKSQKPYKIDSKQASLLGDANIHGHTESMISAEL
T3 sequence (P07766 23-207 limits assumed, chain 1 of 4): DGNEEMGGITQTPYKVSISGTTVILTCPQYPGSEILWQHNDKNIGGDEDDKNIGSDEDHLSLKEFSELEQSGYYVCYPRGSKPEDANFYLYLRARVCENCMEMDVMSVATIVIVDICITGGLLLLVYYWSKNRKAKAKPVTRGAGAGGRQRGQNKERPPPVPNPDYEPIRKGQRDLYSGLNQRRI
T3 sequence (P04234 22-171 limits assumed, chain 2 of 4): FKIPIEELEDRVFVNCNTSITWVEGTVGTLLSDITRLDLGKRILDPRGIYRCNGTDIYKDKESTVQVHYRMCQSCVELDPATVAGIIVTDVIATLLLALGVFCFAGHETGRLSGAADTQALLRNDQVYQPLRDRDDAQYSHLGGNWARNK
T3 sequence (P09693 23-182 limits assumed, chain 3 of 4): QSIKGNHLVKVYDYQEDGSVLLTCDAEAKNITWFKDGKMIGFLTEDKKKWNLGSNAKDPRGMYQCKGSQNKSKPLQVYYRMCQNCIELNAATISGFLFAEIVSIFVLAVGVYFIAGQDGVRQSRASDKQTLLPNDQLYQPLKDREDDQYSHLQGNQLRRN
T3 sequence (P20963 22-164 limits assumed, chain 4 of 4): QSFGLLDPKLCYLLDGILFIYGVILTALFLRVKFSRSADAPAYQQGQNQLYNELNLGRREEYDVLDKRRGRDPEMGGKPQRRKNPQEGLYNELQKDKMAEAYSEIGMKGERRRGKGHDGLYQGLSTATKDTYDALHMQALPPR

B1: ROR1-Tab2 (antibody, V domains shown)
VH: QVQLKESGPGLVAPSQTLSITCTVSGFSLTSYGVHWVRQPPGKGLEWLGVIWAGGFTNYNSALKSRLSISKDNSKSQVLLKMTSLQTDDTAMYYCARRGSSYSMDYWGQGTSVTVSS
VL: EIVLSQSPAITAASLGQKVTITCSASSNVSYIHWYQQRSGTSPRPWIYEISKLASGVPVRFSGSGSGTSYSLTISSMEAEDAAIYYCQQWNYPLITFGSGTKLEIQ
notes: also called clone D10; D10 as described in WO2012097313
Take B1: the dissociation constant Kd in assay [1] stood at 98.8 nM. Besides, the koff in assay [1] was 0.0321 s⁻¹. The kon in assay [1] amounted to 325000 M⁻¹ s⁻¹. Besides, the values for the Inhibition % in assay [2], in assay [3] and in assay [4] were -21%, 92% and 56%, respectively.

B2: R12 x CD3 FIT-Ig (bispecific antibody, human IgG1, kappa, lambda, L234A L235A)
chain 1: not shown
chain 2: QEQLVESGGRLVTPGGSLTLSCKASGFDFSAYYMSWVRQAPGKGLEWIATIYPSSGKTYYATWVNGRFTISSDNAQNTVDLQMNSLTAADRATYFCARDSYADDGALFNIWGPGTLVTISSASTKGPSVFPLAPSSKSTSGGTAALGCLVKDYFPEPVTVSWNSGALTSGVHTFPAVLQSSGLYSLSSVVTVPSSSLGTQTYICNVNHKPSNTKVDKKVEPKSC
chain 3: not shown
Take B2: the “EC50 (read off the curve)” value with human ROR1 on cells [5] is roughly 0.4 nM.

B3: ROR1-Tab1 (antibody, V domains shown)
VH: QEQLVESGGRLVTPGGSLTLSCKASGFDFSAYYMSWVRQAPGKGLEWIATIYPSSGKTYYATWVNGRFTISSDNAQNTVDLQMNSLTAADRATYFCARDSYADDGALFNIWGPGTLVTISS
VL: ELVLTQSPSVSAALGSPAKITCTLSSAHKTDTIDWYQQLQGEAPRYLMQVQSDGSYTKRPGVPDRFSGSSSGADRYLIIPSVQADDEADYYCGADYIGGYVFGGGTQLTVTG
notes: also called clone R12; R12 as described in WO2014167022
For the molecule B3, the EC50 in [6] was determined as 0.025 nM; with human ROR1 on cells [7], 0.128 nM; in the assay with human ROR1 on cells [8], 0.774 nM. Further, the Kd in assay [1] was 1.28 nM. For the same molecule, the koff in [1] came out at 0.00066 s⁻¹. Further, the kon in [1] was 517000 M⁻¹ s⁻¹. Further, the Inhibition % in assay [2] is 95%; in [3], -84%; in assay [4] it was -54%.

B4: D10 x CD3 FIT-Ig (bispecific antibody, human IgG1, kappa, L234A L235A)
chain 1: not shown
chain 2: QVQLKESGPGLVAPSQTLSITCTVSGFSLTSYGVHWVRQPPGKGLEWLGVIWAGGFTNYNSALKSRLSISKDNSKSQVLLKMTSLQTDDTAMYYCARRGSSYSMDYWGQGTSVTVSSASTKGPSVFPLAPSSKSTSGGTAALGCLVKDYFPEPVTVSWNSGALTSGVHTFPAVLQSSGLYSLSSVVTVPSSSLGTQTYICNVNHKPSNTKVDKKVEPKSC
chain 3: not shown
B4: the “EC50 (read off the curve)” value in the assay with human ROR1 on cells [5] is roughly 0.5 nM.

B5: ROR1-mAb004 (antibody, V domains shown)
VH: QVQLQQSGPELVKPGASVKISCKASGYAFSRSWMNWVKQRPEKGLEWIGRIYPGNGDIKYNGNFKGKATLTADKSSSTAYMQLSSLTSEDSAVYFCAHIYYDFYYALDYWGQGTSVTVSS
VL: DIQLTQSPSSLSASLGGKVTITCKASQDINKYITWYQHKPGKGPRLLIHYTSTLQPGIPSRFSGSGSGRDYSFSISNLEPEDIATYYCLQYDSLLWTFGGGTKLEIK
notes: Mouse hybridoma monoclonal antibody; captured and detected through mouse IgG Fc
In the case of B5, the values for the EC50 (in assay [6]; with human ROR1 on cells [7]; in the assay with human ROR1 on cells [8]) were 0.022 nM, 0.983 nM and 2.31 nM, respectively. The Kd in assay [1] is 18.5 nM. Besides, in [1], the koff came to 0.00171 s⁻¹. For the same molecule, the kon in assay [1] came out at 92500 M⁻¹ s⁻¹. For the same molecule, the values for the Inhibition % in assay [2], in [3] and in assay [4] were -22%, 92% and 93%, respectively.

B6: HuEM0006-01-24 (antibody, V domains shown)
VH: EVQLVQSGAEVKKPGASVKVSCKASGFSFTNYYVHWMRQAPGQGLEWMGWISPGSDNTKYNEKFKGRVTMTRDTSISTAYMELSRLRSDDTAVYYCARDDYGNYYFDYWGQGTTVTVSS
VL: DIVMTQSPDSLAVSLGERATINCKSSQSLLNARTRKNYLAWYQQKPGQPPKLLIYWASTRESGVPDRFSGSGSGTDFTLTISSLQAEDVAVYYCKQSYILRTFGGGTKVEIK
notes: only the variable domains are tied to it; also called HuEM1006-01-24
B6: in the assay with human CD3 on cells, the “EC50 (read off the curve)” value is roughly 0.3 nM.

B7: HuEM0006-01-27 (antibody, V domains shown)
VH: B6 VH with M48I, M70L, R72A
VL: B6 VL
notes: only the variable domains are tied to it; also called HuEM1006-01-27
With B7, the “EC50 (read off the curve)” value with human CD3 on cells was roughly 2 nM.
